Laboratory results reported in US20210388087A1.
Positions count from the first letter of the chain named. Names and notes keep the numbering of the source.

B1: H183/L072 VH N53D (antibody, name in Kabat numbering, V domains shown)
VH: QVQLVESGGGLVQPGRSLRLSCAASGFTFSNAWMHWVRQAPGKGLEWVAQIKDKGDAYAAYYAPSVKGRFTISRDDSKNSIYLQMNSLKTEDTAVYYCHYVHYASASTVLPAFGVDAWGQGTTVTVSS
VL: DIVMTQSPLSLPVTPGEPASISCQASQELVHMNRNTYLHWYQQKPGQAPRLLIYKVSNRFPGVPDRFSGSGSGTDFTLKISRVEAEDVGVYYCAQGTSVPFTFGQGTKLEIK
B2: H183/L072 VH F29E (antibody, name in Kabat numbering, V domains shown)
VH: B1 VH with F29E, D56N
VL: B1 VL
B3: H183/L072 VH N31E (antibody, name in Kabat numbering, V domains shown)
VH: B1 VH with N31E, D56N
VL: B1 VL
B4: H183/L072 VH W33E (antibody, name in Kabat numbering, V domains shown)
VH: B1 VH with W33E, D56N
VL: B1 VL
B5: H183/L072 VH M34E (antibody, name in Kabat numbering, V domains shown)
VH: B1 VH with M34E, D56N
VL: B1 VL
B6: H183/L072 VH H35E (antibody, name in Kabat numbering, V domains shown)
VH: B1 VH with H35E, D56N
VL: B1 VL
B7: H183/L072 VH I51E (antibody, name in Kabat numbering, V domains shown)
VH: B1 VH with I51E, D56N
VL: B1 VL
B8: H183/L072 VH K52E (antibody, name in Kabat numbering, V domains shown)
VH: B1 VH with K52E, D56N
VL: B1 VL
B9: H183/L072 VH D52aE (antibody, name in Kabat numbering, V domains shown)
VH: B1 VH with D53E, D56N
VL: B1 VL
B10: H183/L072 VH N53E (antibody, name in Kabat numbering, V domains shown)
VH: B1 VH with D56E
VL: B1 VL
B11: H183/L072 VH F29H (antibody, name in Kabat numbering, V domains shown)
VH: B1 VH with F29H, D56N
VL: B1 VL
B12: H183/L072 VH W33H (antibody, name in Kabat numbering, V domains shown)
VH: B1 VH with W33H, D56N
VL: B1 VL
B13: H183/L072 VH I51H (antibody, name in Kabat numbering, V domains shown)
VH: B1 VH with I51H, D56N
VL: B1 VL
B14: H183/L072 VH K52H (antibody, name in Kabat numbering, V domains shown)
VH: B1 VH with K52H, D56N
VL: B1 VL
B15: H183/L072 VH D52aH (antibody, name in Kabat numbering, V domains shown)
VH: B1 VH with D53H, D56N
VL: B1 VL
B16: H183/L072 VH N53H (antibody, name in Kabat numbering, V domains shown)
VH: B1 VH with D56H
VL: B1 VL
B17: H183/L072 VH G26K (antibody, name in Kabat numbering, V domains shown)
VH: B1 VH with G26K, D56N
VL: B1 VL
B18: H183/L072 VH F29K (antibody, name in Kabat numbering, V domains shown)
VH: B1 VH with F29K, D56N
VL: B1 VL
B19: H183/L072 VH N31K (antibody, name in Kabat numbering, V domains shown)
VH: B1 VH with N31K, D56N
VL: B1 VL
B20: H183/L072 VH W33K (antibody, name in Kabat numbering, V domains shown)
VH: B1 VH with W33K, D56N
VL: B1 VL
B21: H183/L072 VH M34K (antibody, name in Kabat numbering, V domains shown)
VH: B1 VH with M34K, D56N
VL: B1 VL
B22: H183/L072 VH H35K (antibody, name in Kabat numbering, V domains shown)
VH: B1 VH with H35K, D56N
VL: B1 VL
B23: H183/L072 VH D52aK (antibody, name in Kabat numbering, V domains shown)
VH: B1 VH with D53K, D56N
VL: B1 VL
B24: H183/L072 VH N53K (antibody, name in Kabat numbering, V domains shown)
VH: B1 VH with D56K
VL: B1 VL
B25: H183/L072 VH F29R (antibody, name in Kabat numbering, V domains shown)
VH: B1 VH with F29R, D56N
VL: B1 VL
B26: H183/L072 VH N31R (antibody, name in Kabat numbering, V domains shown)
VH: B1 VH with N31R, D56N
VL: B1 VL
B27: H183/L072 VH W33R (antibody, name in Kabat numbering, V domains shown)
VH: B1 VH with W33R, D56N
VL: B1 VL
B28: H183/L072 VH M34R (antibody, name in Kabat numbering, V domains shown)
VH: B1 VH with M34R, D56N
VL: B1 VL
B29: H183/L072 VH H35R (antibody, name in Kabat numbering, V domains shown)
VH: B1 VH with H35R, D56N
VL: B1 VL
B30: H183/L072 VH Q50R (antibody, name in Kabat numbering, V domains shown)
VH: B1 VH with Q50R, D56N
VL: B1 VL
B31: H183/L072 VH I51R (antibody, name in Kabat numbering, V domains shown)
VH: B1 VH with I51R, D56N
VL: B1 VL
B32: H183/L072 VH D52aR (antibody, name in Kabat numbering, V domains shown)
VH: B1 VH with D53R, D56N
VL: B1 VL
B33: H183/L072 VH N53R (antibody, name in Kabat numbering, V domains shown)
VH: B1 VH with D56R
VL: B1 VL

What follows are binders tested against Human CD137 ECD (human) (assay: single mutant vs template dBBDu183H).
Sequence of Human CD137 ECD (human) (chain, as listed by the source limits assumed): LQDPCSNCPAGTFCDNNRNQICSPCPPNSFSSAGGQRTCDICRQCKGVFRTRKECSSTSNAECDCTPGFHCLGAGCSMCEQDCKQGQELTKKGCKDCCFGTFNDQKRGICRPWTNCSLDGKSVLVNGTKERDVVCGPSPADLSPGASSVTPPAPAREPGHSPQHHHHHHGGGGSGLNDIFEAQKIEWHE

Fold change of affinity, 0 fold:
B1
B2
B3
B4
B5
B6
B7
B8
B9
B10
B11
B12
B13
B14
B15
B16
B17
B18
B19
B20
B21
B22
B23
B24
B25
B26
B27
B28
B29
B30
B31
B32
B33
